Measurements from patent US20090220511A1 (RUTGERS THE STATE UNIVERSITY OF NEW JERSEY, published 2009).
One block for each molecule: values may come before it.

Legend:
[1] = molecular target: FLAG tagged chimeric IL-10R1/CRF2-12 receptor (IL-10R1 extracellular domain fused to the transmembrane and intracellular domains of CRF2-12) on HT-29 cells (human) (UniProt Q13651); assay: cell-based or functional assay
[2] = molecular target: the molecule itself; assay: crosslinking of the 32P-labeled ligand to itself in solution, SDS-PAGE
Protocol: (§1) Untreated 32P-labeled FL-IFN-λ1-P ([32P]FL-IFN-λ1-P) was loaded as a control (lane 1). ([32P]FL-IFN-λ1-P) was also incubated in DMEM medium with 10% FBS and crosslinking in solution was performed as described (32) (lane 2). The untransfected and transfected hamster cells described in FIG. 22 row 1 were incubated with 32P-labeled FL-IFN-λ1-P with or without addition of a 100-fold excess of unlabeled IFN-λ1 (competitor), washed, harvested and crosslinked. The extracted crosslinked complexes were analyzed on 7.5% SDS-PAGE. The molecular weight markers are shown on the left.
(§2) In another embodiment of the present invention, the interaction between IFN-λ and its receptor was characterized by crosslinking (FIG. 22). Crosslinking experiments were performed with radiolabeled IFN-λ (FIGS. 20B and C) and the IFN-λ receptor chains expressed in hamster cells (FIG. 22). COS cell-expressed FL-IFN-λ1-P was purified to homogeneity and radiolabeled (FIGS. 20B and C). […] FL-IFN-λ1-P was labeled with [32P]ATP and used for crosslinking to cells as described (Li, et al., (1989) Proc Natl Acad Sci USA 86, 558-562; Kotenko, et al., (1995) J Biol Chem 270, 20915-20921; Pestka, et al., (1999) Protein Expr Purif 17, 203-214; Kotenko, et al., (2001) J Immunol 166, 7096-7103).

[3] = molecular target: T1, intact human CRF2-4 chain expressed alone on hamster 16-9 cells (human, UniProt Q08334 20-325); assay: crosslinking of 32P-labeled ligand to transfected hamster cells, 7.5% SDS-PAGE
T1 construct: whole, on cells; From plasmid pEF-CRF2-4 (pEF-IL-10R2), on hamster 16-9 cells without CRF2-12/γR1; also called IL-10R2
T1 sequence (looked up): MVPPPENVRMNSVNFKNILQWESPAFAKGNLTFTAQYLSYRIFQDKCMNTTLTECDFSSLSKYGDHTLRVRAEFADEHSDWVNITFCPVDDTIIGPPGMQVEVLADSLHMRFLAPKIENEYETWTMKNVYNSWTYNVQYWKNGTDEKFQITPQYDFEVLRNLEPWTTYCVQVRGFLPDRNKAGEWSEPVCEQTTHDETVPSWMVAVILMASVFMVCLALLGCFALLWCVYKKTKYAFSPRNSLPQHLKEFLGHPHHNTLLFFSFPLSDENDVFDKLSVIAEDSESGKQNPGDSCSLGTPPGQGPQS
Protocol: as §1
as §2, with “7096-7103). […]” for “7096-7103).”

[4] = molecular target: T2, chimeric human CRF2-12/γR1 chain expressed alone on hamster 16-9 cells (human, UniProt P15260 246-489); assay: as above
T2 construct: domain: transmembrane and intracellular domains; On the cell surface of hamster 16-9 cells, without human CRF2-4; also called CRF2-12/IFN-γR1; CRF2-12/gR1
T2 sequence: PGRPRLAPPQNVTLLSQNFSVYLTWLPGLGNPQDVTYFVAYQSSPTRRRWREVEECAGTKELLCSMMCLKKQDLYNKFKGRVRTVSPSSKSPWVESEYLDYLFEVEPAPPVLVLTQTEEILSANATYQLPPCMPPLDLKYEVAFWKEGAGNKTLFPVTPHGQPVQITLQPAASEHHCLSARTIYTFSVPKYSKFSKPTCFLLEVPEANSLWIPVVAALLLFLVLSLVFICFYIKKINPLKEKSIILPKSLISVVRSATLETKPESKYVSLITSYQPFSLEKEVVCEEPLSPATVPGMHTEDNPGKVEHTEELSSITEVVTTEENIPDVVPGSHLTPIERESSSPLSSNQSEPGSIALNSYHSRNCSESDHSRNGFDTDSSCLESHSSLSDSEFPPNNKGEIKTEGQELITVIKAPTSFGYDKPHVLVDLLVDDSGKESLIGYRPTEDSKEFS
Protocol: as §1
as §2, with “7096-7103). […]” for “7096-7103).”

[5] = molecular target: T1, intact human CRF2-4 chain expressed …; assay: flow cytometry with anti-FLAG antibody on transfected hamster cells
Protocol: (§3) A. Four cell lines used in these experiments are schematically shown (top panels): the parental Chinese hamster 16-9 cells and cells expressing the human CRF2-12/gR1 chimeric receptor or human IL-10R2 alone or both receptors together. […] The cells were also tested for their ability to bind FL-IFN-λs (panels E, F, G, H and I). The cells were incubated for three hours at 20° C. with conditioned medium from COS-1 cells transfected with one of the following plasmids: the control vector pEF-SPFL (open areas, thick lines); the pEF-FL-IFN-λ1 (FL-IFN-λ1; open areas, thin lines; panels E, F, G and H) or the pEF-FL-IFN-λ2 (FL-IFN-λ2; shaded areas, thin lines; panel I). […] Cells expressing both chains were co-incubated with either FL-IFN-λ1 or FL-IFN-λ2 ([…] of conditioned media from COS cells expressing FL-IFN-λ1/2) and with E. coli produced IFN-λ1 lacking the FLAG epitope (IFN-λ1E. coli, 1 mg/ml) (open areas, thin lines; panels H and I). Ligand binding to the cell surface was determined by flow cytometry with anti-FLAG antibody (Sigma) as the primary antibody and fluorescein isothiocyanate-conjugated goat anti-mouse IgG (Santa Cruz) as the secondary antibody. The ordinate represents relative cell numbers, and the abscissa relative fluorescence (logarithmic scale).

[6] = molecular target: T2, chimeric human CRF2-12/γR1 chain …; assay: as above
Protocol: as §3

Sequence of FLAG tagged chimeric IL-10R1/CRF2-12 receptor (IL-10R1 extracellular domain fused to the transmembrane and intracellular domains of CRF2-12) on HT-29 cells (human) (Q13651 other isoform, or with tags, fused parts or gaps mutant limits assumed): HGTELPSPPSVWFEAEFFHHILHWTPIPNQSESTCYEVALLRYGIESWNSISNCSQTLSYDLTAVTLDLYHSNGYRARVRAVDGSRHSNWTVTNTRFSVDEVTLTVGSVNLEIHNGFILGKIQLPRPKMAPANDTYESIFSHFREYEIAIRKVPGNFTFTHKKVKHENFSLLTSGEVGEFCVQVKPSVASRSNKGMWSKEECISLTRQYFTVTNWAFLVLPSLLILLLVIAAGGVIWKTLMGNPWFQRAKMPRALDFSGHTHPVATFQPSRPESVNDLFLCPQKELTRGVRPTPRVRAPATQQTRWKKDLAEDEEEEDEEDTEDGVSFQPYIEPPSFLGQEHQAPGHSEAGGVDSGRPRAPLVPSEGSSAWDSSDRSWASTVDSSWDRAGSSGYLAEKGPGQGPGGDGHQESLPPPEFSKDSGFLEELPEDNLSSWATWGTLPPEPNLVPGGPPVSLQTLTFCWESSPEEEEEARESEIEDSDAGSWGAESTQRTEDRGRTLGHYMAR

Molecule: IL-10 (from UniProt P22301 19-178) (ligand)
- MHC class I antigen induction and antiviral activity of HT-29 cells expressing FL-IL-10R1/CRF2-12 [1]: 1 ng/mL
- apoptosis of HT-29 cells expressing FL-IL-10R1/CRF2-12 [1]: > 10 ng/mL

- binding result [3]: no binding
- binding result [4]: no binding
B1: 32P-labeled FL-IFN-λ1-P (ligand, not shown: small tags and cut ends)
chain: PTSKPTPTGKGCHIGRFKSLSPQELASFKKARDALEESLKLKNWSCSSPVFPGNWDLRLLQVRERPVALEAELALTLKVLEAAAGPALEDVLDQPLHTLHHILSQLQACIQPQPTAGPRPRGRLHHWLHRLQEAPKKESAGCLEASVTFNLFRLLTRDLKYVADGNLCLRTSTHPESTRRASVA
modifications: labeled with [32P]ATP on the C-terminal Arg-Arg-Ala-Ser-Val-Ala tag (consensus site of the cAMP-dependent protein kinase)
notes: Expressed in COS cells, purified on anti-FLAG M1 gel and radiolabeled; Primer ifnl-7R may encode extra junction residues before the RRASVA tag; also called [32P]FL-IFN-λ1-P; radiolabeled IFN-λ
- binding result [2]: no binding

- binding result [5]: no binding
- binding result [6]: no binding
B2: FL-IFN-λ1 (IFN-λ1 tagged at its N-terminus with the FLAG epitope) (ligand, not shown: small tags and cut ends)
chain: PTSKPTPTGKGCHIGRFKSLSPQELASFKKARDALEESLKLKNWSCSSPVFPGNWDLRLLQVRERPVALEAELALTLKVLEAAAGPALEDVLDQPLHTLHHILSQLQACIQPQPTAGPRPRGRLHHWLHRLQEAPKKESAGCLEASVTFNLFRLLTRDLKYVADGNLCLRTSTHPEST
notes: Used as conditioned medium of transiently transfected COS-1 cells; also called FL-IFN-λ1gene product
